This passage reports SaDltA adenylation activity (pyrophosphate detection assay, initial rates; 5 uM SaDltA with 300 uM SaDltC, 37 °C), increase over SaDltA alone results from paper PMC12838833.

The target of the test is Staphylococcus aureus DltA (D-alanine-D-alanyl carrier protein ligase) (Staphylococcus aureus) (UniProt Q2FZW6).
UniProt Q2FZW6, sequence (Q2FZW6 whole entry): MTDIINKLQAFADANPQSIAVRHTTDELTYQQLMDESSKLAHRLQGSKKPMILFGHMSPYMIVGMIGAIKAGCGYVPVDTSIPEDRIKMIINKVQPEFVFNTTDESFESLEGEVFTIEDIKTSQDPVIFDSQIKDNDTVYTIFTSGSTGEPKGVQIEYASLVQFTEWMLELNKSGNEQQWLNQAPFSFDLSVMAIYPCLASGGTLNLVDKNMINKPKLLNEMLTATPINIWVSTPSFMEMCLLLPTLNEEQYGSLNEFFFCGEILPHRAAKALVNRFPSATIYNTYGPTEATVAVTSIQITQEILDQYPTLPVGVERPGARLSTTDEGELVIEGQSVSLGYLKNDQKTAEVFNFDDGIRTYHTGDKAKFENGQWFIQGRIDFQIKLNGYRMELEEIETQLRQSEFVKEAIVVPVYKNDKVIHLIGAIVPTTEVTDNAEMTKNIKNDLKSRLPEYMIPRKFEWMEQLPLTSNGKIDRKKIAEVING

B1: Wild-type Staphylococcus aureus D-alanyl carrier protein DltC (natural protein)
chain: MEFREQVLNLLAEVAENDIVKENPDVEIFEEGIIDSFQTVGLLLEIQNKLDIEVSIMDFDRDEWATPNKIVEALEELR
modifications: 4'-phosphopantetheine (Ppant) on Ser36 (co-expressed with AcpS to produce Ppant-attached SaDltC)
Molecule B1 showed a SaDltA adenylation activity (pyrophosphate detection assay, initial rates; 5 uM SaDltA with 300 uM SaDltC, 37 °C), increase over SaDltA alone of 22.3 fold.
